Test results published in patent publication US20230365705A1 (DYNAMICURE BIOTECHNOLOGY, published 2023).

T1: Human CD93 recombinant protein (Sino Biological Inc, Catalog #12589-H08H) (human, UniProt Q9NPY3 22-580)
T1 construct: Biotinylated (EZ-LINK NHS-PEG4 biotin) in the BLI assays; also called hCD93; His-tagged human CD93
T1 sequence (looked up): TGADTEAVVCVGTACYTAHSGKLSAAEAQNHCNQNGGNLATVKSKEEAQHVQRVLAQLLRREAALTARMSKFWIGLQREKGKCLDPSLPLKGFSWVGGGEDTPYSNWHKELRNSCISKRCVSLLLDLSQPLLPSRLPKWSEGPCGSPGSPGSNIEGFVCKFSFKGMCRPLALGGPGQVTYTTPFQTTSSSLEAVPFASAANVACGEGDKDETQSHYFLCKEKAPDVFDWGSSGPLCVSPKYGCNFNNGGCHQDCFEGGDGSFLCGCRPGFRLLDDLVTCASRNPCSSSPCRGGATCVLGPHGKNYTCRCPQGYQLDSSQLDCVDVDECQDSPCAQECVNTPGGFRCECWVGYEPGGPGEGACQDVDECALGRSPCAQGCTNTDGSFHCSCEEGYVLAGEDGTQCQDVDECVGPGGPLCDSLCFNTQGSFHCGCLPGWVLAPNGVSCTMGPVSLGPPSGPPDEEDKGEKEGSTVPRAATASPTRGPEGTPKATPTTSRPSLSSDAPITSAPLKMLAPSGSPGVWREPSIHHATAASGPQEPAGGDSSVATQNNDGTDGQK

T2: Human CD93 on cells (human CD93 expressing CHO cells; HUVEC, U937 and KG1a cells) (human, UniProt Q9NPY3 22-652)
T2 construct: whole, on cells; also called hCD93 expressing CHO cells; hCD93 CHO cells
T2 sequence (looked up): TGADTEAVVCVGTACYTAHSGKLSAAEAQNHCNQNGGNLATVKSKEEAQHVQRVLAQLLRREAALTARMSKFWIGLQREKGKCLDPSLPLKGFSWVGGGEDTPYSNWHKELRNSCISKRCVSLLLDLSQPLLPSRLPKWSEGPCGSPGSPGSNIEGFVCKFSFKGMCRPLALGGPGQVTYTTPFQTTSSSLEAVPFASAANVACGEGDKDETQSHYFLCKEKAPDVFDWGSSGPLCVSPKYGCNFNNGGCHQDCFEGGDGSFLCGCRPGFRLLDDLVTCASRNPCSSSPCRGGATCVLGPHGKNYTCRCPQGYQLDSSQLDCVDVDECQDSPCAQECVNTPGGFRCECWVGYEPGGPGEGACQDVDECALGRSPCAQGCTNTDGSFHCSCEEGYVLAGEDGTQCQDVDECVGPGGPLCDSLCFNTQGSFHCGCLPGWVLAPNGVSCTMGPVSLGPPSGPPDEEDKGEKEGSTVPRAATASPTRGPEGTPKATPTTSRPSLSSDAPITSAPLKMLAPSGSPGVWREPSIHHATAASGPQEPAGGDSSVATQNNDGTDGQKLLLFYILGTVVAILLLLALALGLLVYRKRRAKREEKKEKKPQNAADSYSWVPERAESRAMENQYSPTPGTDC

B1: h16E4 (humanized 16E4, VH4+VL6) (antibody, V domains shown)
VH: QVQLVQSGAEVKKPGASVKVSCKASGYTFTSYWMHWVRQAPGQGLEWMGEIDPSASYTYYNQKFKGRVTMTRDKSSSTVYMELSSLTSEDSAVYYCARSVYYGNKYFDVWGAGTTVTVSS
VL: DIQMTQSPSTLSASVGDRVTITCKASQSVDYAGDSYMNWYQQKPGKAPKLLIYAASNLESGVPSRFSGSGSGTEFTLTISSLQPDDFATYYCQQTNEDPRTFGGGTKLEIK
notes: Detected with anti-human IgG, so a human Fc
B2: h7F3 (humanized 7F3, VH3+VL3) (antibody, human IgG1, V domains shown)
VH: QVQLVQSGAEVKKPGASVKVSCKASGYTFTDYEMHWVRQAPGQGLEWMGGIDPETGDTAYNQNFKGRVTMTTDTSTSTAYMELRSLTSDDTAVYYCTNYGNLYYYAMDYWGQGTSVTVSS
VL: EIVLTQSPSSLSASVGDRVTITCRASSSVSSSYLHWYQQKPGKAPKLLIYSTSNLAFGVPSRFSGSGSGTSYTFTISSLQPEDIATYYCQQYSGYPLTFGSGTKLEIK
notes: also called humanized 7F3-hIgG1
B3: 16E4 (hybridoma) (antibody, IgG2a, V domains shown)
VH: QVQLQQPGAELVKPGASVKLSCKASGYTFTSYWMHWVKQRPGQGLEWIGEIDPSASYTYYNQKFKGKATLTVDKSSSTAYMQLSSLTSEDSAVYYCARSVYYGNKYFDVWGAGTTVTVSS
VL: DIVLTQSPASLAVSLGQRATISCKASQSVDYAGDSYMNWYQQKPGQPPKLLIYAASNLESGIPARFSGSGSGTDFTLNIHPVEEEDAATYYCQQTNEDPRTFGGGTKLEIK
notes: also called 16E4 mAb; 16E4 mIgG2a

Experiments:
[1] = target: T1, Human CD93 recombinant protein (Sino …); test: ELISA, His-tagged human CD93 coated, OD450; antibody stored 4 weeks at 40 C
Description: (§1) His-tagged human CD93 was coated onto a 96 well plate at 1 μg/mL in 1×PBS overnight at 4° C. The plate was washed with ELISA wash buffer (Boston BioProduct, Inc.) and the wells were blocked with ELISA blocking buffer for 1 hour at 37° C. […] The plate was washed with ELISA wash Buffer. HRP-conjugated anti-human Fc antibody was incubated for 1 hour at 37° C. The plate was washed with ELISA wash Buffer. HRP substrate was added for indirect detection of the antibodies binding to CD93.

[2] = target: T2, Human CD93 on cells (human CD93 …); test: summary table, column FACS (KG1a cells); 4 weeks at 40 C
Description: (§2) KG1a cells were detached by incubation with TrypLE reagents (Thermo Fisher), which preserves the integrity of CD93 on the cell surface. Then the cells were incubated with serial diluted anti-CD93 antibodies for 30 minutes at 4° C. After washing by FACS buffer, the cells were incubated with Alexa Fluor 647 conjugated anti-human IgG (Jackson ImmunoResearch) for 30 minutes in 4° C. After washing by FACS buffer twice, the samples were acquired in NovoCyte Flow Cytometer and analyzed by NovoExpress software.
as §2

[3] = target: T2, Human CD93 on cells (human CD93 …); test: summary table, column FACS (CHO-hCD93 cells); 2 weeks at 40 C
[4] = target: T1, Human CD93 recombinant protein (Sino …); test: ELISA, His-tagged human CD93 coated, OD450; antibody stored 2 weeks at 40 C
Description: as §1

[5] = target: T2, Human CD93 on cells (human CD93 …); test: flow cytometry titration, CHO-hCD93 cells; antibody stored 4 weeks at 40 C
Description: as §2, with “Human CD93 expressing CHO” for “KG1a”

[6] = target: T2, Human CD93 on cells (human CD93 …); test: summary table, column FACS (CHO-hCD93 cells)
[7] = target: T2, Human CD93 on cells (human CD93 …); test: flow cytometry blocking assay, CHO-hCD93 cells; blocked ligand hMMRN2 495-674 at 0.1 ug/ml; blocking activity is 0 up to about 10 ug/ml and appears only at the two highest points
Description: Then the cells were incubated with hMMRN2₄₉₅₋₆₇₄ at 0.1 μg/ml. […] Then the cells were washed with FACS buffer and incubated with APC-conjugated anti-His tag antibody at 1 μg/ml for 30 minutes at 4° C. After washing with FACS buffer twice, the samples were analyzed and data acquired in NovoCyte Flow. Recombinant his tagged […] was produced internally in Expi_HEK following routine procedure.

Row | Binder | EC50 [1] [nM] | EC50 [2] [nM] | EC50 [3] [nM] | EC50 [4] [nM] | EC50 [5] [nM] | EC50 [6] [nM] | IC50 [7] [nM]
1 | B1 | 0.051 | 0.115 | 0.274 | 0.049 | 0.312 | 0.388 | 225
2 | B2 | 0.0407 | 0.019 | 0.194 | 0.0413 |  |  | 
3 | B3 |  |  |  |  |  | 0.59 | 
